# Results reported in the supplement of paper PMC9170038.
# Test system: K4 kissing-loop RNA reporter
# Test: apparent KD of K4 kissing-loop reporter; higher = weaker reporter binding
# Settings: Eterna round: R107; input ligand: FMN 200 uM
# Experimental: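 RNA-MaP round R107: designed RNA switches with theophylline, tryptophan, arginine or FMN aptamers are transcribed on-chip within common flanks. They are titrated with a labelled K4 kissing-loop RNA reporter in RNA-MaP buffer (100 mM Tris pH 7.5, 80 mM KCl, 4 mM MgCl2), without ligand or with the indicated ligand. Median apparent KD per design.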
# 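Note: bound reporter read as fluorescence of individual clusters on recovered sequencing chips by microscopy, with normalized cluster intensities fitted with a binding model.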
row,Sequence,apparent KD of K4 kissing-loop reporter [nM]
1,GAGCCAGAGGUUGCUGCGGGUUUCAGAGAUACCAGCCGUAUUGUAGGCCCUUGGCAGCUCGAGUGAUGUUCGAGCCGCCUCUGGC [Eredorxela],111
2,AGCCACGACGCGGCCGCCACUGCCAUUAAACGUAAGGCAAAUCUAAUCUUCGAGUGAUGUUCGGGCAGGACCGGGCGGAGACUUG [theeternabot_sameState_KL_Trp_B_18],636
3,GCGCCGGUCUGCUUUAGAGUGAUGUUCUCCCGAGGACCGGUACGGCCGCCACUCGGCCAACGCUAUUAUCUUUGAUCCGCGGUGC [theeternabot_exclusion_KL_Trp_A_41],1300
4,UCAUCAUGAUGGUAGUAACCGCAUUGGGAGCGAGGACCGGUACGGCCGCCACUCGAAAUGUACAUAGCAGUAGUGAUGUUGCUGC [theeternabot_sameState_KL_Trp_A_47],134
5,AAAAUAAACCAGUGAUGUUGGUGUCCAGAUACCAGCGAUAAAAGUCGCCCUUGGCAGCUGUGGACGUACAAAAUAAGUACGUCCU [MatMod 2 - Jieux - Same State - Theophylline A],703
6,AAAUAGAUCAGUCACCCAGUGAUGUUGGAAGGAGCGUGCGAAAGCACAGGUAGGUCGCCAAAAUAAAAGUGGCUGAUCAAAAUAA [#SwitchBubble 5 #K4Early],336
7,AUGGACUCUUCGGAGUCCGCCUUAAGGGAUACCAGUGAUGUUGGUCACCCUUGGCAGCCUAGAAAGGAAGCCACCAAAGGUGGCA [Omei v1 mod #OpenEnded #Sliding],105
8,AUUCGUUUUUGUGAUACCAGACAUGUGAGUGAUGUUUACAUAUAUAUUUAAUAUUUAGCUGUCCCUUGGCAGCACUGUUUAUUUA [JR_ExcTheophyB_Sub003],343
9,AGCGUCCCUACGGCCGCCACUGGGAGUGAUGUUCCCAGGUUAGGCCUGAGGAUACUAUGGAUCGCCAGGACCGGGUAGCGACCAA [Zaarin],93.4
10,AGAGUACGAAAGUACUCCUCUACACACUGUCGAGGACCGGUACGGCCGCCACUCGAGUUGAGUGAUGUUCGAUAGUGUGUAGAGA [Omei KL Tryp A SS C v4],66.4
11,GUCUGCUGUAUCGAUACCAGAAGUGGGCAGUGAUGUUGUUCGGGUACAUCGCGUCUCGAGUUCCCUUGGCAGCGAUUGUACGAAU [theeternabot_exclusion_KL_Theo_B_12],533
12,CGCGGCCGGCCGGAUACCAGUGACCCGCUGGAAACCGCGGGCCCAGAGUGAUGUUCGGGACACCCUUGGCAGCCGCCUGGGCGUG [#2 Same State - Theophylline B Attempt #2 (HarryS)],547
13,GGUAGCAUGGCGGCCGCCACUUUAUACUCGGUCGUUGGCGUCGUAAGUGAUGUUUACAUUCGCAAAAGGACCGGGCCAUGCUACC,97.8
14,UCCUAGGCUCGAAAGAGCCUAGGUUAGACUCAGGAUAUCUGGAAACAGAGAAGGGAGCUACUAGUGAUGUUAGGAAUUCCCAUUU,102
15,AGACUUCACCGAAGGAGCGACGUGGCCUAGUGAUGUUAGGCACGAGAGAAAUCUCGUAUACGUCAGGUAGGUCGCGGUGAAGUCA [Omei KL Arginine B SS C v6],204
16,AGACUACCAACACUGUCAAUAGACAGUGACUAGGAUAUGCUGAUAAGCAGAAGGAGUGAUGUUCCUAAUAGAAAGGUAGUCAAAU [FmnAX 17 #SwitchBubble #StaticStem #K4Early],294

# Same assay, conditions: Eterna round: R107; input ligand: arginine 13.2 mM
row,Sequence,apparent KD of K4 kissing-loop reporter [nM]
1,UCCUAGGUUCGUCGGCGAAAGCCCUGCGAAGGAGCGUGCGAAAGUACAGGUAGGUCGCGCAGUGAUGUUGCACCUAGGUAAUAAA [#07 K4 Arginine A Exclusion],191
2,ACACUAUCGUCAUAGACGGUAGUGAAAUCACAGGAUAUAAGUGAUGUUAGAAGGGUGAAAGACUGUAUCGAAUAGAUACAGUCAA [FmnA 3 #K4BetweenAptamer #OpenEnded],605
3,AAGAGGUAGGCGGCCGCCACUUGUUGUGAACACAUACGAGCCAGUGAUGUUGGUAUUGUGGGCGGAAGGACCGGGCCUACCUGAA [Exclusion - Tryptophan B (Freestyle 20)],304
4,AGCUCAGAGUGACUCGAUAAGAGUCACAAACGAGGACCGGUACGGCCGCCACUCGAAAUAAUGAGAGUGAUGUUCUCGCUGAGCA [#SwitchBubble 2 #StaticStem #K4Late],98.6
5,UGGGCCGCCUGAGGAUAUAGAGACGAGUGAUGUUCGUGGAUCAGAGCCAGUGAUGUUGGGUUAUUUCUAGAAGGCGGGCGAACUU [Exclusion FMN B GF10],112
6,UCGAAGGAUGGAAGGAGCGCUCGUCAGUCCUGCGAGUGAUGUUCGUGGGUAAAUAGUCGCGAGCAGGUAGGUCGCCAUCUUGAGC [Laxe],102
7,GGAGGUUGGUGCGAUACCAGACCAGCAGUGAUGUUGCGCCAAAGUGAGUGAUGUUCACCGGUCCCUUGGCAGCGCAUUCCUUUAG [Same State Theophylline B GF 14],1110
8,UGAUCUGCAGUGAUGUUGCAGUAGCUGUCAGAGGAUAUCAGACUCAUGAGAAGGCUGACAAUGUCUAACAGCACAAUGCUGUUCA [FMN A SS t6],156
9,GCUAUGGUAGGAAGGAGCGCUUACUCGGUCAUAAGAGUGAUGUUCGAGACCGAGUAUUUAUAGCAGGUAGGUCGCCUACUAUAGC [Arginine B K4 6],124
10,GGAUAGGAUAGAGGAUAUGGGUUAGGCAAGAAUAACUUGUCUAGUAAAUCCAUGAGGAGUGAUGUUCCAGAAGGCUGUCCUAUCG [MatMod 4 - Jieux - Exclusion - FMN B],125
